# Measured values taken from patent US12534531 (MacroGenics, dated 2026).
# Positions count from the first letter of the chain named.
# B1: PD-1 mAb 14 (antibody, V domains shown)
# VH: QVQLQQPGAELVKPGASVKMSCKASGYNFISYWITWVKQRPGQGLQWIGNIYPGTDGTTYNEKFKSKATLTVDTSSSTAYMHLSRLTSEDSAVYYCATGLHWYFDVWGTGTTVTVSS
# VL: DIVMTQSQKFMSTSVGDRVSVTCKASQSVGTNVAWYQQKPGQSPKALIYSASSRFSGVPDRFTGSGSGTDFTLTISNVQSEDLAEYFCQQYNSYPYTFGGGTKLEIK
# notes: Murine monoclonal antibody
# B2: PD-1 mAb 11 (antibody, V domains shown)
# VH: EVQLQQSGTVLARPGASVKMSCKTSGYTFTGYWMHWVKQRPGQGLKWMGAIYPGNSDTHYNQKFKGKAKLTAVTSASTAYMELSSLTNEDSAIYYCTTGTYSYFDVWGTGTTVTVSS
# VL: DILLTQSPAILSVSPGERVSFSCRASQSIGTSIHWYQHRTNGSPRLLIKYASESISGIPSRFSGSGSGTDFTLSINSVESEDIADYYCQQSNSWLTFGAGTKLELK
# notes: Murine monoclonal antibody
# B3: PD-1 mAb 13 (antibody, V domains shown)
# VH: EVMLVESGGGLVKPGGSLKLSCAASGFTFSSHTMSWVRQTPEKRLEWVATISGGGSNIYYPDSVKGRFTISRDNAKNTLYLQMSSLRSEDTALYYCARQAYYGNYWYFDVWGTGTTVTVSS
# VL: DIQMTQSPATQSASLGESVTITCLASQTIGTWLAWYQQKPGKSPQLLIYAATSLADGVPSRFSGSGSGTKFSFKISSLQAEDFVSYYCQQLDSIPWTFGGGTKLEIK
# notes: Murine monoclonal antibody
# B4: PD-1 mAb 15 (antibody, V domains shown)
# VH: EVMLVESGGGLVKPGGSLKLSCAASGFIFSSYLISWVRQTPEKRLEWVAAISGGGADTYYADSVKGRFTISRDNAKNTLYLQMSSLRSEDTALYYCTRRGTYAMDYWGQGTSVTVSS
# VL: B3 VL with T10S, S85N, D92Y
# notes: Murine monoclonal antibody
# B5: PD-1 mAb 10 (antibody, V domains shown)
# VH: EVILVESGGGLVKPGGSLKLSCAASGFTFSNYLMSWVRQTPEKRLEWVASISGGGSNIYYPDSVKGRFTISRDNAKNTLYLQMNSLRSEDTALYYCARQELAFDYWGQGTTLTVSS
# VL: DIQMTQTTSSLSASLGDRVTISCRTSQDISNFLNWYQQKPDGTIKLLIYYTSRLHSGVPSRFSGSGSGTDYSLTISNLEQEDIATYFCQQGSTLPWTFGGGTKLEII
# notes: Murine monoclonal antibody
# B6: PD-1 mAb 12 (antibody, V domains shown)
# VH: QGHLQQSGAELVRPGASVTLSCKASGFTFTDYEMHWVKQTPVHGLEWIGTIDPETGGTAYNQKFKGKAILTVDKSSTTTYMELRSLTSEDSAVFYCSRERITTVVEGAYWYFDVWGTGTTVTVSS
# VL: DVLMTQTPLSLPVSLGDQASISCRSSQNIVHSNGNTYLEWYLQKPGQSPKLLICKVSTRFSGVPDRFSGSGSGTDFTLKISRVEAEDLGVYYCFQGSHVPYTFGGGTKLEIK
# notes: Murine monoclonal antibody
# B7: PD-1 mAb 8 (antibody, V domains shown)
# VH: EGQLQQSGPELVKPGASVKISCKASGYTFTDYYMNWVKQNHGKSLEWIGDINPKNGDTHYNQKFKGEATLTVDKSSTTAYMELRSLTSEDSAVYYCASDFDYWGQGTTLTVSS
# VL: DVVMTQTPLSLPVGLGDQASISCRSSQTLVYSNGNTYLNWFLQKPGQSPKLLIYKVSNRFSGVPDRFSGSGSGTDFTLKISRVEAEDLGVYFCSQSTHVPFTFGSGTKLEIK
# notes: Murine monoclonal antibody
# B8: hPD-1 mAb 9 (1.1), constant region not named where tested (antibody, V domains shown)
# VH: EVQLVESGGGLVRPGGSLKLSCAASGFTFSSYLVSWVRQAPGKGLEWVATISGGGGNTYYSDSVKGRFTISRDNAKNSLYLQMNSLRAEDTATYYCARYGFDGAWFAYWGQGTLVTVSS
# VL: DIQMTQSPSSLSASVGDRVTITCRASENIYSYLAWYQQKPGKAPKLLIYNAKTLAAGVPSRFSGSGSGTDFTLTISSLQPEDFATYYCQHHYAVPWTFGQGTKLEIK
# B9: hPD-1 mAb 15, constant region not named where tested (antibody, V domains shown)
# VH: EVQLVESGGGLVRPGGSLRLSCAASGFTFSSYLISWVRQAPGKGLEWVAAISGGGADTYYADSVKGRFTISRDNAKNSLYLQMNSLRAEDTATYYCARRGTYAMDYWGQGTLVTVSS
# VL: DIQMTQSPSSLSASVGDRVTITCLASQTIGTWLAWYQQKPGKAPKLLIYAATSLADGVPSRFSGSGSGTDFTFTISSLQPEDFATYYCQQLYSIPWTFGQGTKLEIK
# notes: also called humanized PD-1 mAb 15
# B10: hPD-1 mAb 2, constant region not named where tested (antibody, V domains shown)
# VH: EVQLVESGGGLVQPGGSLRLSCAASGFVFSSFGMHWVRQAPGKGLEWVAYISSGSMSISYADTVKGRFTISRDNAKNTLYLQMNSLRTEDTALYYCASLSDYFDYWGQGTTVTVSS
# VL: DVVMTQSPLSLPVTLGQPASISCRSSQSLVHSTGNTYLHWYLQKPGQSPQLLIYRVSNRFSGVPDRFSGSGSGTDFTLKISRVEAEDVGVYYCSQTTHVPWTFGQGTKLEIK
# notes: also called humanized PD-1 mAb 2
# B11: hPD-1 mAb 7 (1.2), constant region not named where tested (antibody, V domains shown)
# VH: QVQLVQSGAEVKKPGASVKVSCKASGYSFTSYWMNWVRQAPGQGLEWIGVIHPSDSETWLDQKFKDRVTITVDKSTSTAYMELSSLRSEDTAVYYCAREHYGTSPFAYWGQGTLVTVSS
# VL: EIVLTQSPATLSLSPGERATLSCRASESVDNYGMSFMNWFQQKPGQPPKLLIHAASNQGSGVPSRFSGSGSGTDFTLTISSLEPEDFAVYFCQQSKEVPYTFGGGTKVEIK
# B12: PD-1 mAb A (nivolumab), constant region not named where tested (antibody, V domains shown)
# VH: QVQLVESGGGVVQPGRSLRLDCKASGITFSNSGMHWVRQAPGKGLEWVAVIWYDGSKRYYADSVKGRFTISRDNSKNTLFLQMNSLRAEDTAVYYCATNDDYWGQGTLVTVSS
# VL: EIVLTQSPATLSLSPGERATLSCRASQSVSSYLAWYQQKPGQAPRLLIYDASNRATGIPARFSGSGSGTDFTLTISSLEPEDFAVYYCQQSSNWPRTFGQGTKVEIK
# notes: also called 5C4; BMS-936558
# B13: PD-1 mAb A IgG1 (AA) (antibody, V domains shown)
# VH: B12 VH
# VL: B12 VL
# B14: hPD-1 mAb 2 IgG1 (AA) (antibody, V domains shown)
# VH: B10 VH
# VL: DVVMTQSPLSLPVTLGQPASISCRSSQSLVHSTGNTYLHWYLQKPGQSPQLLIYRVSNRFSGVPDRFSGSGSGTDFTLKISRVEAEDVGVYYCSQTTHVPWTFGQGTKLEIKR
# B15: hPD-1 mAb 7 (1.1) IgG1 (AA) (antibody, V domains shown)
# VH: B11 VH
# VL: EIVLTQSPATLSLSPGERATLSCRANESVDNYGMSFMNWFQQKPGQPPKLLIHAASNQGSGVPSRFSGSGSGTDFTLTISSLEPEDFAVYFCQQSKEVPYTFGGGTKVEIKR
# notes: VH1 with VL1
# B16: hPD-1 mAb 15 IgG1 (AA) (antibody, V domains shown)
# VH: B9 VH
# VL: DIQMTQSPSSLSASVGDRVTITCLASQTIGTWLAWYQQKPGKAPKLLIYAATSLADGVPSRFSGSGSGTDFTFTISSLQPEDFATYYCQQLYSIPWTFGQGTKLEIKR
# Biological target: T1, soluble cynomolgus monkey PD-1 (the extracellular domain of cynomolgus monkey PD-1 fused to a human Fc Region) (cynomolgus monkey, UniProt B0LAJ3 25-170)
# T1 construct: also called scyno-PD1 Fc; scynoPD-1-hFc; not shown: Human Fc Region and any linker or cleavage site between the extracellular domain and the Fc
# T1 sequence (B0LAJ3 entry or part of it limits assumed): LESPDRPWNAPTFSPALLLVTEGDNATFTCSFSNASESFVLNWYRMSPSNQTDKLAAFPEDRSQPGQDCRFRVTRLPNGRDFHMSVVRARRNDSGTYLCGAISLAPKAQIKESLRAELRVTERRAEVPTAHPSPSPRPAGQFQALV
# Experiment: ELISA: scyno-PD-1-TEV-Fc coated at 1 ug/ml, goat anti-mouse IgG (H+L) detection, RLU
binding result,EC50 (read off the curve),Binder
binds,,B1
,~0.2 µg/mL,B2
binds,,B3
binds,,B4
binds,,B5
binds,,B6
binds,,B7

# Biological target: T2, soluble human PD-1 (the extracellular domain of human PD-1 fused to a His tag) (human, UniProt Q15116 25-170)
# T2 construct: also called shPD-1 His; shPD-1-His; not shown: His tag
# T2 sequence (Q15116 25-170): as the sequence (B0LAJ3 entry or part of it limits assumed) above, with E2D, A10P, L19V, A35T, R75Q, A144T counted along it
# Experiment: Biacore, mAb captured on Protein A, analyte shPD-1 His
row,Kd,Binder
1,36.1 nM,B8
2,13.3 nM,B9
3,2.9 nM,B4
4,5 nM,B10
5,0.39 nM,B11

# Biological target: T2, soluble human PD-1 (the extracellular …)
# Experiment: ELISA: shPD-1 His coated at 0.5 ug/ml, goat anti-mouse IgG (H+L) detection, RLU
binding result,EC50 (read off the curve),Binder
binds,,B1
,~0.2 µg/mL,B2
binds,,B3
binds,,B5
binds,,B6
binds,,B7

# Biological target: T3, soluble cynomolgus monkey PD-1 (scyno PD-1 hFc) cleaved to remove Fc portion (cynomolgus monkey, UniProt B0LAJ3 25-170)
# T3 sequence (B0LAJ3 entry or part of it limits assumed): as the sequence (B0LAJ3 entry or part of it limits assumed) above
# Experiment: Biacore, mAb captured on Protein A, analyte scyno PD-1 hFc cleaved of Fc
row,Kd,Binder
1,73.3 nM,B8
2,78.3 nM,B9
3,40.7 nM,B4
4,17 nM,B10
5,1.7 nM,B11
6,6.9 nM,B12

# Biological target: T4, soluble human PD-1 (the extracellular domain of human PD-1 fused to a human Fc Region) (human, UniProt Q15116 25-170)
# T4 construct: whole entry named; also called shPD-1 hFc; shPD-1-human Fc; not shown: human Fc Region
# T4 sequence (Q15116 25-170): as the sequence (B0LAJ3 entry or part of it limits assumed) above, with E2D, A10P, L19V, A35T, R75Q, A144T counted along it
# Experiment: ELISA: shPD-1 hFc coated at 0.5 ug/ml, goat anti-mouse IgG (H+L) detection, RLU
row,binding result,Binder
1,binds,B1
2,binds,B2
3,binds,B3
4,binds,B4
5,binds,B5
6,binds,B6
7,binds,B7

# Biological target: T3, soluble cynomolgus monkey PD-1 (scyno …)
# Experiment: Biacore, mAb captured on F(ab)2 goat anti-human Fc, analyte scyno PD-1 hFc cleaved of Fc
row,Kd,Binder
1,5.6 nM,B13

# Biological target: T5, human PD-1 expressed on the surface of cells (NSO cells expressing human PD-1; MNFAT-luc2/PD-1 Jurkat cells) (human, UniProt Q15116 21-288)
# T5 construct: also called cell surface PD-1; PDCD1 transfected NSO cells expressing PD-1
# T5 sequence (Q15116 21-288): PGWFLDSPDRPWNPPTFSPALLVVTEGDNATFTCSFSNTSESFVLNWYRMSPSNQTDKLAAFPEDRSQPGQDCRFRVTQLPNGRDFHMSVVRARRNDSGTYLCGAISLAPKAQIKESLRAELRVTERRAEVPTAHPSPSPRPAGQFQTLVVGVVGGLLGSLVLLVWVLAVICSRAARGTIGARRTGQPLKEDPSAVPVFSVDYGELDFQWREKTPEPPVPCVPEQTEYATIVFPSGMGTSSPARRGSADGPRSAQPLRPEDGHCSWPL
# Experiment: FACS saturation binding on NSO cells expressing human PD-1, goat anti-human-APC, MFI, 1:4 dilutions
row,EC50 (read off the curve),Binder
1,~0.5 µg/mL,B14
2,~0.2 µg/mL,B15

# Biological target: T5, human PD-1 expressed on the surface of …
# Experiment: FACS blocking on NSO cells expressing human PD-1, 1:4 dilutions, MFI; blocked ligand: biotinylated sPD-L1, streptavidin-PE
row,IC50 (read off the curve),Binder
1,~0.04 ug/test,B16
2,~0.04 ug/test,B14
3,~0.01 ug/test,B15

# Biological target: T5, human PD-1 expressed on the surface of …
# Experiment: FACS blocking on NSO cells expressing human PD-1, 1:4 dilutions, MFI; blocked ligand: biotinylated sPD-L2, streptavidin-PE
row,IC50 (read off the curve),Binder
1,~0.09 ug/test,B16
2,~0.1 ug/test,B14
3,~0.01 ug/test,B15
